In the experiment the target is U87MG. Nature of the experiment: flow cytometry, cell binding; human U87MG cells.

The text below walks through data of patent US20170368138A1 (published 2017).

B1: NOD201M (Fc fusion)
chain: GCPRPRGDNPPLTCSQDSDCLAGCVCGPNGFCGEPRVPITQNPCPPLKECPPCAAPDLLGGPSVFIFPPKIKDVLMISLSPMVTCVVVDVSEDDPDVQISWFVNNVEVHTAQTQTHREDYNSTLRVVSALPIQHQDWMSGKEFKCKVNNRALPSPIEKTISKPRGPVRAPQVYVLPPPAEEMTKKEFSLTCMITGFLPAEIAVDWTSNGRTEQNYKNTATVLDSDGSYFMYSKLRVQKSTWERGSLFACSVVHEGLHNHLTTKTISRSLG
As for B1, the affinity, expressed as Kd, was 0.7 nM.
